# Reference: the supplement of paper PMC12042874
# ± gives the uncertainty stated by the source.
# Experiment: amyloid nucleation score (Sup35N fusion, yeast selection) (log enrichment); library NNK3; higher = more nucleation; inactive = no reads after selection
# Summary of the method: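 For the nucleation score, DiMSum gave the log enrichment of output over input reads, centred on the mode score of non-aggregating sequences. Psi-negative yeast expressing Sup35N fused to peptides of 20 random codons were induced with 100 μM copper sulfate for 24 hours and grown 7 days at 30°C on medium lacking adenine and uracil. Input and output plasmid inserts were Illumina-sequenced, and sequences with under 100 input reads were excluded.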
row,Substance,amyloid nucleation score
1,RPFKFMKLFHIMCVVDVYCM,inactive
2,ICMYRRLRISCVLAYRFRHF,inactive
3,FDIIVQITYHVWNMNVHF,0.932 ± 0.1
4,SDFSVRVLDNWIHNMTGRIG,inactive
5,CMLNRNFWVVYSHVGRRRL,inactive
6,YVYESFGWVSGNFKVWF,inactive
7,CKFCFSAIFSLLYNRIGAPQ,inactive
8,FSALMIY,0.015 ± 0.32
9,RSYIKGIFCLSAMRFQCSMS,-0.404 ± 0.78
10,ILYGKVTKKRGSKALSVRVM,inactive
11,ISRNRQRSVIPGTTKLCMWV,inactive
12,IGINVRALRRGLTLVPL,inactive
13,SDLQVIWFMFFCSTLVRDWI,inactive
14,LNSYQDYSRGVLLKRKALLY,inactive
15,YSLLSSMPLIRRRLGLYESW,inactive
16,GRNCFGGARTAVGIRNTSPL,inactive
17,WRRMTEPMSAKGLTNYLEST,inactive
18,SLTALDNWCRIFAMPVLSWK,inactive
19,AFWSH,inactive
20,IVKCLYVVCV,inactive
21,DERKNSIDSR,inactive
22,KLNFVGLVLRNVGSWEGHGC,inactive
23,LVAKRFISYHLIV,inactive

row,Substance,amyloid nucleation score
1,NSLCKLGFFSMVKYV,inactive
2,QGMSAFYYVYGLKLWLHLLL,inactive
3,RPAIRSFFVMVSVKLR,inactive
4,DQIYSECLV,inactive
5,RWMLSDGFIMKRRTSFFNDM,inactive
6,NQCAS,inactive
7,IIPYCRS,inactive
8,LIGFLNNSVFMSAGY,inactive
9,WYFWVFCSFKLENCAPVNQW,inactive
10,GNIDCSTVFVSRNNCD,inactive
11,TLSELLR,inactive
12,DIIYTFHHAVNRLNKIFSV,inactive
13,AKVKIWAWASIGCPPMQALV,inactive
14,DDCIIRAGWDLLQR,inactive
15,LLFQL,inactive
16,CRTQMPSIFDL,inactive
17,KDYLLSSYCEECHDHSSSEL,inactive
18,KFIGFYVWVYVCHCVVIRAY,inactive
19,TVHILANRPRAQYD,inactive
20,LNRSSLYFF,inactive
21,VNLITCKQVSFRCQVSGILC,2.19 ± 0.092
22,VLYVRNLMLYGNLCKALLAF,inactive
23,QNVRLTMLLFRNKVYS,inactive

row,Substance,amyloid nucleation score
1,CLFGLGVEAKVFIYQGDDQS,inactive
2,LCFRLDVSRMCTVSGNIGYC,1.57 ± 0.079
3,CELVAQFPKFFAFYIFYDDT,inactive
4,RCFRLIKVLKLLTVFEIITF,inactive
5,QRTFG,inactive
6,PFFCYWVTMKKVIFDTGVFA,inactive
7,FLDFQLFLCTHYLGRI,inactive
8,RILALCGHRGNGLQGYILLD,0.744 ± 0.13
9,FYRSLGMYRDWTMSIFGKYL,inactive
10,VYVVRANRFMRSPQLRVLFS,inactive
11,YRIVVVMMAIISTNDNIP,0.371 ± 0.26
12,PKALVFNLEDDLQGIWSVT,2.1 ± 0.079
13,IVALQRSFSNNT,inactive
14,YMWKVVDCSPVVSTS,-0.352 ± 1.3
15,VTLCVVEPDCWRIGG,inactive
16,WKFSISWVYTKME,-0.423 ± 0.75
17,MSVLC,inactive
18,GSGVNWFNIVVVS,inactive
19,MIDDYRECSYIYF,inactive
20,ASNDDVG,inactive
21,VFYSKKDRMGGQFS,inactive
22,TVPIILVSTVRANMFFETRN,1.54 ± 0.093
23,VMSSCKIRCNDTRTPAAHIC,inactive

row,Substance,amyloid nucleation score
1,RGWVPVTVIQWIMIDCQFKA,2.78 ± 0.054
2,YVHFAN,inactive
3,KSALTRPDARPVRYRQPTHS,inactive
4,SMNKFKF,inactive
5,AFDYLVV,inactive
6,SQWIGFIEGCGNWMGYLACV,inactive
7,LYDISGPM,inactive
8,KFLISFRRSY,2.07 ± 0.076
9,TAESEMNQCVLSRYFSSAIR,inactive
10,GQPGQ,inactive
11,PLSNNKVVWWYYL,inactive
12,SAIRMPAYDYTWRGLYGDKK,inactive
13,MLISERIFQYTCGNYS,2.09 ± 0.085
14,ISCALHYDSVRKRYVVSGQL,inactive
15,IWQCRYLRMGQ,inactive
16,PEKMFPSPVTATRFANCVL,inactive
17,VPCTWDLFYIGRSMWWFLTM,inactive
18,RGYGTSDRIAALMWLSRWFQ,inactive
19,CMSRYVDSYFNLAYRDRFLW,0.451 ± 0.47
20,GLPNLASYSPPPINAKYIGD,inactive
21,LFDFHSSCKSAVIAYLLSRR,0.138 ± 0.47
22,YVDLQPITREADDLRALTFM,inactive
23,KGLYV,inactive

row,Substance,amyloid nucleation score
1,NAYTAHGYDKLRNQSKVAYR,inactive
2,QLVRQMTKGVG,inactive
3,RIFSFT,inactive
4,FGYHYWVSATCMSLALSWLT,inactive
5,YMGILCMGLLNSKW,-0.606 ± 0.76
6,MTQVQCLTSVNWKVTHVLHR,1.29 ± 0.15
7,SRSFKRNLVSMVNLGVRDEM,inactive
8,QATVISRVYNWAGLSDCVVV,0.425 ± 0.47
9,IPVLLPSMCINNKFMVSSWN,1.39 ± 0.1
10,LKRSFNDFEFH,inactive
11,NIRWGTYVSKFVLYLAITTR,inactive
12,GISSKFRSPNRGNCYYRDIL,inactive
13,SRISKMSELIYRLRYIVILV,inactive
14,SCLTDKRSCFC,0.538 ± 0.34
15,LLGYASMASSFIYIQHNVLE,inactive
16,WDMENFLD,inactive
17,YFFWDLEILMHPFFQTVRNK,inactive
18,STLFSPR,0.922 ± 0.14
19,SYNRAA,inactive
20,KLDTVYRPSMRACVCNREFV,-0.515 ± 1.1
21,IWKLHITLLSYRSILHVLHM,inactive
22,MILSESKYGFTFRLRVARQV,inactive
23,LYREFVWMEVCVCRWG,inactive

row,Substance,amyloid nucleation score
1,RSVKSIDSHMAKESF,inactive
2,SNGAGC,inactive
3,KVSCEYSNNKWF,inactive
4,MRHEHAYSIPAHCIYELIMM,inactive
5,DFYRSEQGDWSNLHSC,inactive
6,LVAWCDIPNCCANVYCNSVD,1.85 ± 0.077
7,VFFFMNQSRRDRIE,1.72 ± 0.11
8,FTRNEQP,inactive
9,SMNFSSWWRLCCDEGSGSYT,0.671 ± 0.19
10,AYFDLWLM,inactive
11,LSLSSFCF,1.3 ± 0.17
12,RAHICSYSFAIYVFVCN,0.661 ± 0.13
13,MILSNISGSRLIGSSNHSAF,inactive
14,NTNRSLENDCIRALRQCGLV,inactive
15,LYVVVASMVGLDASRP,0.266 ± 0.38
16,FLDSLYKRGCNKFGQLWR,inactive
17,GGTNVFGAWSHNQRILCQKG,inactive
18,SGIFKLNCHKVGLILQSPYR,0.055 ± 0.35
19,IDELLSLQLHRIHKLLEMHG,inactive
20,GGRVNWM,inactive
21,VALWLVWLFYMRFRGSSFEL,inactive
22,NEHGEAGCAYEAKGAVGVKS,inactive
23,PRQTVISASQPDLNIRGFLC,inactive

row,Substance,amyloid nucleation score
1,ITSVTLITNKSKSGIGKVGS,inactive
2,VFVMETTKLFSNDIGVRGGW,0.717 ± 0.15
3,ASQAALFGKIHYEASY,inactive
4,NVSLVTVWWDNHY,inactive
5,GASVGFEVHCNFVVNLNVQH,2.18 ± 0.066
6,DLYCMPLAAVLFGGGC,inactive
7,FSSRKSLCGLDLKECFTSVE,inactive
8,HVGLRAKLTFLDRVYLSILS,inactive
9,YLWTTLCKPRVDFRAEYRDL,2.05 ± 0.058
10,LYDSSTALATVSDHFVEWLS,inactive
11,LERYWCTNRGFNRWMQAYKD,inactive
12,TYCLKLMSQAAPTIEKT,inactive
13,MVMNYWSTCNYSWPEVVISG,inactive
14,IRYLYLV,inactive
15,VDSHANHGSNHRWSASDEIS,inactive
16,KPLVV,inactive
17,LSHSRSNL,inactive
18,HAGVHWFERGSFHWMLFINY,inactive
19,LCVSLNCPQFSFYSLQNQPY,2.71 ± 0.053
20,SSRSRTRWASNFLAHAYGRF,inactive
21,WPESIFKLRYRSGCCTEVND,inactive
22,SYRKEYYKLGHYSRRMQATS,inactive
23,FLWMSAEGLSK,inactive
